T1: recombinant human TGFβ2 (R&D Systems, Cat #302-B2-010/CF) (human, UniProt P61812 303-414)
T1 construct: Bought protein
T1 sequence (looked up): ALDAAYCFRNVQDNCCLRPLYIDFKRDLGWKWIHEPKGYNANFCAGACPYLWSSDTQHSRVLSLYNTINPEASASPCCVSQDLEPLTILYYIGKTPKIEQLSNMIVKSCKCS

T2: recombinant human B7-H3 protein (R&D Systems, Cat #1027-B3-100) (human, UniProt Q5ZPR3-2 29-245)
T2 construct: Bought protein; also called CD276
T2 sequence (looked up): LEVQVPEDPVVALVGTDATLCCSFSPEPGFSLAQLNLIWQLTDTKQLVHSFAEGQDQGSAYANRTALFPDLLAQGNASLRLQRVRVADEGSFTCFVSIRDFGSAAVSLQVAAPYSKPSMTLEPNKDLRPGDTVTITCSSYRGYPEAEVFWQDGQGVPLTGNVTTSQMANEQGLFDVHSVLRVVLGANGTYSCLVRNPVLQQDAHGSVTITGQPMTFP

T3: recombinant human TGFβ3 protein (R&D Systems, Cat #8420-B3-025/CF) (human, UniProt P10600 301-412)
T3 construct: Bought protein
T3 sequence (looked up): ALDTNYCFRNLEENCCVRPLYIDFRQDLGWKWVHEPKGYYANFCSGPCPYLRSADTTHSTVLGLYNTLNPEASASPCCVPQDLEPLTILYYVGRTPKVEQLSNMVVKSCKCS

B1: #1 (mono) B7-H3 mono antibody free of TGFβ binding portion (antibody, human IgG1, N297A, V domains shown)
VH: EVQLLESGGGLVQPGGSLRLSCAASGFTFSSYAMSWVRQAPGKGLEWVSTITGSGGSTYYADSVKGRFTISRDNSKNTLYLQMNSLRAEDTAVYYCARYKSGAFDIWGQGTLVTVSS
VL: EIVLTQSPGTLSLSPGERATLSCRASQGIGNYLGWYQQKPGQAPRLLIYTASSLQSGIPDRFSGSGSGTDFTLTISRLEPEDFAVYYCQQGYSTPSWTFGQGTKVEIK
B2: #2 (mono) B7-H3 mono antibody free of TGFβ binding portion (antibody, human IgG1, N297A, V domains shown)
VH: EVQLLESGGGLVQPGGSLRLSCAASGFTFSAYYMIWVRQAPGKGLEWVSITNPSGGVTSYAQKFQGRFTISRDNSKNTLYLQMNSLRAEDTAVYYCARVGGRGFDIWGQGTLVTVSS
VL: EIVLTQSPGTLSLSPGERATLSCHASQGISNYVAWYQQKPGQAPRLLIYDASNRATGIPDRFSGSGSGTDFTLTISHLEPEDFAVYYCQQSYSTLLTFGQGTKVEIK
B3: #6 bispecific molecule (bispecific antibody, human IgG1, N297A)
heavy: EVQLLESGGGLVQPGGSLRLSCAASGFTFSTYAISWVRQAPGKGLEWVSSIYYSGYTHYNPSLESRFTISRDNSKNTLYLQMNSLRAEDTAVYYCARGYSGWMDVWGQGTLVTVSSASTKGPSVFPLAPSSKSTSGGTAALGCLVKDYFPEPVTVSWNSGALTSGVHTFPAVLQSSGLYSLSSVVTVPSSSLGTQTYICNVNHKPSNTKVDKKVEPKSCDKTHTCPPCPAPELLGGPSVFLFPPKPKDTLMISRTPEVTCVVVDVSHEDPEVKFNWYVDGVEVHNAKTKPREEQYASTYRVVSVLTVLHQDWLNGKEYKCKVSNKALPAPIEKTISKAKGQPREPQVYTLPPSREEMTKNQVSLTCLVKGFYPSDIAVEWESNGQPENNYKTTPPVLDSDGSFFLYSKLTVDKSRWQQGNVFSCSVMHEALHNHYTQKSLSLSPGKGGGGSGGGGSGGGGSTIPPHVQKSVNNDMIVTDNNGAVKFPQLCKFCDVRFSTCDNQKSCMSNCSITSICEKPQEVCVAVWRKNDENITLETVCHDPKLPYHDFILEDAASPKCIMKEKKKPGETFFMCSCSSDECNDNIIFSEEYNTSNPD
VL: QSVLTQPPSASGTPGQRVTISCGGNNIGSKSVHWYQQLPGTAPKLLIYDNNKRPSGVPNRFSGSKSGTSASLAISGLRSEDEADYYCAAWDDSLNVPVFGGGTKLTVL
notes: also called #6 (TRAP); B7-H3/TGFβ bispecific molecule #6
B4: #9 bispecific molecule (bispecific antibody, human IgG1, N297A)
heavy: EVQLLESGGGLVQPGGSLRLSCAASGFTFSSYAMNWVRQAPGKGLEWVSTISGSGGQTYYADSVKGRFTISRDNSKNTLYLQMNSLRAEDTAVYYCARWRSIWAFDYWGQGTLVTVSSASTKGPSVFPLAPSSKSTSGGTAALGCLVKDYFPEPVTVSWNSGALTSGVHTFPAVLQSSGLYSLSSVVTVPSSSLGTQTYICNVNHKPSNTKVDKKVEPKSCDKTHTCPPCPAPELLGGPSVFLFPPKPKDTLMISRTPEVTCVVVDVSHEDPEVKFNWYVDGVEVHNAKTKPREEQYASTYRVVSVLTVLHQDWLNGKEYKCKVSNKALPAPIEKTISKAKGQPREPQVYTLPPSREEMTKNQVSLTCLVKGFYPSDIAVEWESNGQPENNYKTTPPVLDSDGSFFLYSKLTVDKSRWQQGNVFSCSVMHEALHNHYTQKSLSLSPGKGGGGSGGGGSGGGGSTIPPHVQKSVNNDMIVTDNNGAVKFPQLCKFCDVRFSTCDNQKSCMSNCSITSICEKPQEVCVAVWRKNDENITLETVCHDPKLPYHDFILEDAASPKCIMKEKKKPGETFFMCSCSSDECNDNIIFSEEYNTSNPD
VL: B3 VL with G23S, G24D, N59D, A88G, A89T, N95S, V96G
notes: also called #9 (TRAP); B7-H3/TGFβ bispecific molecule #9
B5: #1 bispecific molecule (bispecific antibody, human IgG1, N297A)
heavy: not shown
VL: B1 VL
notes: also called #1 (TRAP); B7-H3/TGFβ bispecific molecule #1
B6: #5 bispecific molecule (bispecific antibody, human IgG1, N297A)
heavy: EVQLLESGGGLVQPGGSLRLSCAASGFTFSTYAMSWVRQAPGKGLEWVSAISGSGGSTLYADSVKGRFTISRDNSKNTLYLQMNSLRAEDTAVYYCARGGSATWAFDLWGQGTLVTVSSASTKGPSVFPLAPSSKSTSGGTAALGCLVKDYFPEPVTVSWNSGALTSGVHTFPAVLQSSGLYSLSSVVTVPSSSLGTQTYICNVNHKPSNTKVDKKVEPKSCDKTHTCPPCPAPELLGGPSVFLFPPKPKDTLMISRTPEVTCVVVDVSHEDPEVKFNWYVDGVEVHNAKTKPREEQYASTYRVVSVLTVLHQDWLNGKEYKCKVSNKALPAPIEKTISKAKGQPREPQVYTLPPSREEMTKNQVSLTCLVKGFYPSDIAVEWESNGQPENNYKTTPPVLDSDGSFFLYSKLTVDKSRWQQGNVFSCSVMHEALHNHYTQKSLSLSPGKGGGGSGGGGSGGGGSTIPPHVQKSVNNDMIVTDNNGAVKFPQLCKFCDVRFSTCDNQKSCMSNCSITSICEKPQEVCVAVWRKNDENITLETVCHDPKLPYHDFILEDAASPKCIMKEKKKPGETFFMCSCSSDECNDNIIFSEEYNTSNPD
VL: QSVLTQPPSASGTPGQRVTISCSGSSSNIGSNYVYWYQQLPGTAPKLLIYRNNQRPSGVPDRFSGSKSGTSASLAISGLRSEDEADYYCGTWDSSLSGVVFGGGTKLTVL
notes: also called #5 (TRAP); B7-H3/TGFβ bispecific molecule #5
B7: #4 bispecific molecule (bispecific antibody, human IgG1, N297A)
heavy: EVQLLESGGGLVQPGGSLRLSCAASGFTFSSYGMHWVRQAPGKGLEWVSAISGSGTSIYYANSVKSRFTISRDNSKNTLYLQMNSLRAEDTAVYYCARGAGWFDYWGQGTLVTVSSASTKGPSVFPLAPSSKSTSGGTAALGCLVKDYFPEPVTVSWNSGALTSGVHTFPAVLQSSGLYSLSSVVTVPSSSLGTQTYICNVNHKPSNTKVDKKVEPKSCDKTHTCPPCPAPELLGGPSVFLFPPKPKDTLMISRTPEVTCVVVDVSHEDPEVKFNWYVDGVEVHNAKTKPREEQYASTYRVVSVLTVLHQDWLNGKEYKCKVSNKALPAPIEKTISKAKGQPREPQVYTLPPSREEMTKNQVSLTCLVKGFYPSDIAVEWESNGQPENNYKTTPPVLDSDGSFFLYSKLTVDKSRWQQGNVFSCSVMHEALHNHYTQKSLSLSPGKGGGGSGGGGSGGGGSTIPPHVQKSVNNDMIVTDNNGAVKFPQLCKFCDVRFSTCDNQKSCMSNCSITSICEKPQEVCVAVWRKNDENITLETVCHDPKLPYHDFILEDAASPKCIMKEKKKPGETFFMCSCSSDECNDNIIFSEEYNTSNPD
VL: QSVLTQPPSASGTPGQRVTISCSGSTSNIGSNTVNWYQQLPGTAPKLLIYGKNIRPNGVPDRFSGSKSGTSASLAISGLHSEDEADYYCQSYDSSLSGWVFGGGTKLTVL
notes: also called #4 (TRAP); B7-H3/TGFβ bispecific molecule #4
B8: #2 bispecific molecule (bispecific antibody, human IgG1, N297A)
heavy: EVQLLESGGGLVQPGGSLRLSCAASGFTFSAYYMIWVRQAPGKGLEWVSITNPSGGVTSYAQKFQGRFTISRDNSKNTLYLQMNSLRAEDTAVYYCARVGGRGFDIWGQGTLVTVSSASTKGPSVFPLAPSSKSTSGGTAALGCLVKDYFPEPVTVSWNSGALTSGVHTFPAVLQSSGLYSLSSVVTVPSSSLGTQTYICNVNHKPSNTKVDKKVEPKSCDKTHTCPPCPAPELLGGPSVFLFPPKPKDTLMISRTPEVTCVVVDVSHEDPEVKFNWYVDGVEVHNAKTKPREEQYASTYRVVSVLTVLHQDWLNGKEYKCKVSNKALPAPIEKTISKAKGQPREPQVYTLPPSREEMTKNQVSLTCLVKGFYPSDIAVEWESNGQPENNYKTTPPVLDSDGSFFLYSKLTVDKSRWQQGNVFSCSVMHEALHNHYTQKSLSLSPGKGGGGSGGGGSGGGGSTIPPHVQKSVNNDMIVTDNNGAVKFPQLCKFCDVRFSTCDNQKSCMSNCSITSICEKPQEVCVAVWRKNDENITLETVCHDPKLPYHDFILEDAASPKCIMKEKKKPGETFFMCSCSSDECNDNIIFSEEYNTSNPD
VL: B2 VL
notes: also called #2 (TRAP); B7-H3/TGFβ bispecific molecule #2
B9: #3 bispecific molecule (bispecific antibody, human IgG1, N297A)
heavy: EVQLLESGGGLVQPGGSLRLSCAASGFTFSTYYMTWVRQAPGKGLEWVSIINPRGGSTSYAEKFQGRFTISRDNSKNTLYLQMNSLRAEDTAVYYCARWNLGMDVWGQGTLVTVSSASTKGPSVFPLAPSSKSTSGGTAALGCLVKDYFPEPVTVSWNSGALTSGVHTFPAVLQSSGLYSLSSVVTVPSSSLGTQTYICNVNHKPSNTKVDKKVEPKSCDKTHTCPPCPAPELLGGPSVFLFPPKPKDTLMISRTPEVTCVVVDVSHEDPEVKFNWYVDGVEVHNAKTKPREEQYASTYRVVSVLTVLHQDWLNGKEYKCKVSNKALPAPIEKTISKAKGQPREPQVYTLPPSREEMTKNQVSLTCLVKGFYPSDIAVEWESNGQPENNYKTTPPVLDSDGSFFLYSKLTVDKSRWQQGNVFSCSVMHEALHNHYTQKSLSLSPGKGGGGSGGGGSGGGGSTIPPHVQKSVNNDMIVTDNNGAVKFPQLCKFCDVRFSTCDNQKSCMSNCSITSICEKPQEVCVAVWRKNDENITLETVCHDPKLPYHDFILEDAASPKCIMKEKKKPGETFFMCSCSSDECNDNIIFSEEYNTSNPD
VL: EIVLTQSPGTLSLSPGERATLSCRVSQSISSYLNWYQQKPGQAPRLLIYDASHRATGIPDRFSGSGSGTDFTLTISRLEPEDFAVYYCQQYYAPSVTFGQGTKVEIK
notes: also called #3 (TRAP); B7-H3/TGFβ bispecific molecule #3
B10: #7 bispecific molecule (bispecific antibody, human IgG1, N297A)
heavy: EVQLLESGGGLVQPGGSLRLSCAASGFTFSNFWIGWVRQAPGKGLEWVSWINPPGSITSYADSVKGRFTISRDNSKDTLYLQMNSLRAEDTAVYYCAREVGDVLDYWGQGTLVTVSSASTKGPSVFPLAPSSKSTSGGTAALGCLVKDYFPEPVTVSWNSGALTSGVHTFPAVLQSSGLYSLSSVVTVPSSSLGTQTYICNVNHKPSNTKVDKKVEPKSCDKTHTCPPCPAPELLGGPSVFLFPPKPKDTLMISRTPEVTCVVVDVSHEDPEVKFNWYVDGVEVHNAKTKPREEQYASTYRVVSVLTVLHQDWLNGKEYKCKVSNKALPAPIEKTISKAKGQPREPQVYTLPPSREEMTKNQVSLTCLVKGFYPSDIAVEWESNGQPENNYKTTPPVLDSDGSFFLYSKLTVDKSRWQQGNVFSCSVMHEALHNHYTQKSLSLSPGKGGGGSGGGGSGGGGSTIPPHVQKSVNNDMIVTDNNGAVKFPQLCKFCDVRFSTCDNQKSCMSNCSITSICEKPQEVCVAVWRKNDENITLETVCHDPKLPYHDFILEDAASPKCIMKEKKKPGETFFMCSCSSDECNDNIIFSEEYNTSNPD
VL: QSVLTQPPSASGTPGQRVTISCTGTSSDIGRYNYVSWYQQLPGTAPKLLIYRNTQRPSGVPDRFSGSKSGTSASLAISGLRSEDEADYYCGTWDSSLNAYVFGGGTKLTVL
notes: also called #7 (TRAP); B7-H3/TGFβ bispecific molecule #7
B11: #8 bispecific molecule (bispecific antibody, human IgG1, N297A)
heavy: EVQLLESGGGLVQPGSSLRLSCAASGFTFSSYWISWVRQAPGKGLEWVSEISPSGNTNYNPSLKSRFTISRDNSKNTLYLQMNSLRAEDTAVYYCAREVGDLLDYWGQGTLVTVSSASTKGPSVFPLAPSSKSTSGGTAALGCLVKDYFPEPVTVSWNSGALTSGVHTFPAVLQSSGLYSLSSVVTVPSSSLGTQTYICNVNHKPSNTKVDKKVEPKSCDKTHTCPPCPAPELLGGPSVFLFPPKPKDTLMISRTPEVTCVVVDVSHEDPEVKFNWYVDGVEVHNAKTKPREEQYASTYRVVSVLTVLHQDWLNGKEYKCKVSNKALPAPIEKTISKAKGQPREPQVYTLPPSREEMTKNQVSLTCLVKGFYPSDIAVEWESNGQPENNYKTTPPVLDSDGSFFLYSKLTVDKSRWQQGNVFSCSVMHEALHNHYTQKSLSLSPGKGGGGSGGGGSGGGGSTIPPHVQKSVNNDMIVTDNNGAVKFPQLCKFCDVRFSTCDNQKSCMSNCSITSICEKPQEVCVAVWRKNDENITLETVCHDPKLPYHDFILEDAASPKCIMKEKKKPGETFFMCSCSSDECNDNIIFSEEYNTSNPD
VL: QSVLTQPPSASGTPGQRVTISCSGSNIGNNYVSWYQQLPGTAPKLLIYQDSKRPSGVPDRFSGSKSGTSASLAISGLRSEDEADYYCLVWDRSSDHFVFGGGTKLTVL
notes: also called #8 (TRAP); B7-H3/TGFβ bispecific molecule #8

Residue numbers refer to the chain shown, from its start.

T4 sequence (P01137 279-390 limits assumed): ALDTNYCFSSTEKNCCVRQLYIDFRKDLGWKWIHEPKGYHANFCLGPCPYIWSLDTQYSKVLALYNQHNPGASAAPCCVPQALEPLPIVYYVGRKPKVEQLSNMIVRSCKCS

The first assay concerns the target T4, recombinant human TGFβ1 protein (R&D Systems, Cat #7754-BH-025/CF) (human, UniProt P01137 279-390).
T4 construct: Bought protein
The assay is described as follows: bridging ELISA on plate-coated TGFβ1, detected with His-tag human B7-H3; paragraph 158 says the mono antibodies are not bound to TGFβ1. Background: An ELISA detects its analyte on a solid surface through an enzyme-linked reagent.
As to B1, the binding result was “no binding”.

Consider B2, for which the binding result is given as “no binding”.

The target in a further assay is T1, recombinant human TGFβ2 (R&D Systems, …). The assay is described as follows: ELISA; plate-coated bispecific, TGFβ2 titrated (EC50 is a TGFβ2 concentration), biotinylated anti-TGFβ2 detection. Here is the method: After coating a plate with 1×PBS solution containing #1 to #9 bispecific molecules (30 μL, 0.5 μM), the plate was covered and cultured overnight at 2 to 8° C. Thereafter, the wells were washed once with 150 μL PBS per well, and blocked with 120 µL of blocking buffer (1×PBS-T w/3% BSA) per well for 2 hours at room temperature. The blocking buffer was discarded, recombinant human TGFβ2 (R&D Systems, Cat #302-B2-010/CF) was 4-fold diluted in serial from 30 nM. After adding each diluted solution to the wells by 30 μL per well, it was reacted at room temperature for 1 hour. Then, the wells were washed three times with 150 μL of washing buffer (1×PBS-T) per well, followed by diluting Biotinylated-TGF-beta2 antibody combined with the recombinant human TGFβ2 protein in the blocking buffer. After adding the diluted solution to the wells by 30 μL per well, it was reacted at room temperature for 1 hour. Further, after washing the wells three times with 150 μL of washing buffer (1×PBS-T) per well, 30 μL of streptavidin-HRP diluted in the blocking buffer was added to each well, and reacted at room temperature for 1 hour. After washing the wells three times with 150 μL of washing buffer (1×PBS-T) per well, HRP reaction was developed using TMB, and the reaction was stopped with 30 μL 1 N HCl. Then, the optical density (OD) was measured at 450 nm.
For B3, the concentration giving a half-maximal response (EC50) is 0.083 nM.

As to B4, the EC50 was determined as 0.143 nM.

Regarding B5, the EC50 was 0.136 nM.

Regarding B6, the EC50 is 0.143 nM.

Take B7: the EC50 was determined as 0.13 nM.

As to B8, the half-maximal effective concentration (EC50) was determined as 0.14 nM.

B9: the concentration giving a half-maximal response (EC50) stood at 0.076 nM.

Turning to B10, the concentration for a half-maximal effect (EC50) is 0.12 nM.

Take B11: the concentration giving a half-maximal response (EC50) was found to be 2.08 nM.

A further assay has as its target T2, recombinant human B7-H3 protein (R&D …). The assay is described as follows: ELISA; plate-coated recombinant human B7-H3, bispecific titrated. Here is the method:
After coating a plate with recombinant human B7-H3 protein (R&D Systems, Cat #1027-B3-100) (30 μL, 20 nM) in 1×PBS solution, the plate was covered and coated overnight at 2 to 8° C. Thereafter, the wells were washed once with 150 μL PBS per well, and blocked with 120 μL of blocking buffer (1×PBS-T w/3% BSA) per well for 2 hours at room temperature. The blocking buffer was discarded and 30 μL of antibody solution was added using a series of dilution solutions (using the blocking buffer, #1 to #9 bispecific molecules were diluted in serial by two times; 2-fold serial dilution), and reacted at room temperature for 1 hour, then the wells were washed three times with 150 μL of wash buffer per well. 30 μL of HRP conjugate of anti-HA Tag antibody diluted in the blocking buffer was added to each well, and reacted at room temperature for 1 hour. Thereafter, the wells were washed three times with 150 μL of washing buffer per well, the HRP reaction was developed using TMB, the reaction was stopped with 1 N HCl, and then the optical density (OD) was measured at 450 nm.
It was confirmed that #1 to #9 bispecific molecules specifically bind to B7-H3 with excellent binding force.
Turning to B3, the EC50 was 1.34 nM.

On to B4, for which the EC50 was 6.11 nM.

In the case of B5, the EC50 stood at 27.5 nM.

With B6, the EC50 came to 10.2 nM.

Take B7: the EC50 came out at 29.3 nM.

For the molecule B8, the EC50 worked out at 3.19 nM.

B9: the EC50 came to 5.94 nM.

With B10, the 50% effective concentration (EC50) was determined as 12.2 nM.

For B11, the concentration for a half-maximal effect (EC50) came to 1.72 nM.

Another assay deals with T3, recombinant human TGFβ3 protein (R&D …). The assay is described as follows: ELISA; plate-coated TGFβ3, bispecific titrated, anti-human IgG1 Fc-HRP. Here is the method: (§1) After coating a plate with each of recombinant human TGFβ1 protein (R&D Systems, Cat #7754-BH-025/CF) and TGFβ3 protein (R&D Systems, Cat #8420-B3-025/CF) (30 μL, 0.5 μg/ml) in 1×PBS solution, the plate was covered and cultured overnight at 2 to 8° C. Thereafter, the wells were washed once with 150 μL PBS per well, and blocked with 120 μL of blocking buffer (1×PBS-T w/3% BSA) per well for 2 hours at room temperature. The blocking buffer was discarded and 30 μL solution containing #1 to #9 bispecific molecules (5-fold serial dilution) was added, followed by reaction for 1 hour at room temperature. Then, the wells were washed three times with 150 μL PBS per well. 30 μL of HRP conjugated anti-Human IgG1 Fc Ab diluted in the blocking buffer was added to each well, and reacted at room temperature for 1 hour. Thereafter, the wells were washed three times with 150 μL of washing buffer per well, the HRP reaction was developed using TMB, and the reaction was stopped with 30 μL 1 N HCl. Then, the optical density (OD) was measured at 450 nm.
Regarding B3, the EC50 turned out to be 4.56 nM.

Consider B4, for which the concentration giving a half-maximal response (EC50) amounted to 5.98 nM.

With B5, the 50% effective concentration (EC50) is 4.72 nM.

As to B6, the half-maximal effective concentration (EC50) was determined as 3.14 nM.

Turning to B7, the EC50 came out at 3.32 nM.

In the case of B8, the EC50 was 7.92 nM.

As to B9, the EC50 worked out at 3.8 nM.

For the molecule B10, the half-maximal effective concentration (EC50) amounted to 8.09 nM.

On to B11, for which the EC50 was found to be 2.94 nM.

Another assay addresses T4, recombinant human TGFβ1 protein (R&D …). The assay is described as follows: bridging ELISA; plate-coated TGFβ1, bispecific titrated, detected with His-tag human B7-H3 and anti-His-HRP. The method, then: After coating a plate with the recombinant human TGFβ1 protein (30 μL, 0.5 μg/ml) in 1×PBS solution, the plate was covered and cultured overnight at 2 to 8° C. Thereafter, the wells were washed once with 150 μL PBS per well, and blocked with 120 µL of blocking buffer (1×PBS-T w/3% BSA) per well for 2 hours at room temperature. The blocking buffer was discarded and 4-fold diluted antibody solution was added by 30 μL, followed by reaction for 2 hour at room temperature. Then, the wells were washed three times with 150 μL of washing buffer (1×PBS-T) per well.
Thereafter, 30 μL of His-tag human B7-H3 protein diluted in the blocking buffer was added to each well, and cultured at room temperature for 2 hours. Thereafter, the wells were washed three times with 150 μL of washing buffer per well. 30 μL of HRP conjugate of anti-His tag antibody diluted in the blocking buffer was added to each well, and reacted at room temperature for 1 hour. Thereafter, the wells were washed three times with 150 μL of washing buffer per well, the HRP reaction was developed using TMB, and the reaction was stopped with 30 μL 1 N HCl. Then, the optical density (OD) was measured at 450 nm.
B3: the half-maximal effective concentration (EC50) amounted to 2.21 nM.

As for B4, the EC50 worked out at 1.56 nM.

With B5, the 50% effective concentration (EC50) is 3.83 nM.

Turning to B6, the EC50 turned out to be 3.74 nM.

In the case of B7, the EC50 is 1.96 nM.

On to B8, for which the concentration for a half-maximal effect (EC50) worked out at 1.43 nM.

Regarding B9, the EC50 is 2.11 nM.

On to B10, for which the concentration for a half-maximal effect (EC50) amounted to 3.15 nM.

In the case of B11, the EC50 is 1.98 nM.

The target is the same in the next assay. The assay is described as follows: ELISA; plate-coated TGFβ1, bispecific titrated, anti-human IgG1 Fc-HRP. Here is the method: as §1
With B3, the concentration for a half-maximal effect (EC50) is 9.08 nM.

In the case of B4, the EC50 turned out to be 3.94 nM.

As to B5, the 50% effective concentration (EC50) was determined as 3.84 nM.

On to B6, for which the concentration for a half-maximal effect (EC50) was found to be 3.62 nM.

B7: the concentration for a half-maximal effect (EC50) was 2.02 nM.

On to B8, for which the EC50 was found to be 5.83 nM.

Take B9: the EC50 was determined as 4.39 nM.

Consider B10, for which the EC50 worked out at 24.8 nM.

With B11, the half-maximal effective concentration (EC50) turned out to be 3.41 nM.

One may read the EC50 as the midpoint of the concentration-response curve.

Values taken from patent US20240287190A1 (THERANOTICS, published 2024).
